Measurements reported in the Immune Epitope Database (IEDB).

Legend:
HLA-B*15:01 = assay: IEDB peptide-MHC binding, purified MHC/direct/fluorescence; filed as Kd, often an IC50 or EC50 that approximates it; ≥ and ≤ were set here for values at or beyond the usual limits of such assays
HLA-A*01:01 [1] = assay: as above
HLA-A*02:01 [2] = assay: IEDB peptide-MHC binding, purified MHC/competitive/fluorescence; filed as Kd, often an IC50 or EC50 that approximates it; ≥ and ≤ were set here for values at or beyond the usual limits of such assays
HLA-B*07:02 = assay: IEDB peptide-MHC binding, purified MHC/direct/fluorescence; filed as Kd, often an IC50 or EC50 that approximates it; ≥ and ≤ were set here for values at or beyond the usual limits of such assays
HLA-A*26:01 = assay: IEDB peptide-MHC binding, purified MHC/competitive/radioactivity; filed as Kd, often an IC50 or EC50 that approximates it; ≥ and ≤ were set here for values at or beyond the usual limits of such assays
HLA-A*01:01 [3] = assay: as above
HLA-B*44:02 = assay: as above
HLA-B*44:03 = assay: as above
HLA-A*24:02 = assay: as above
HLA-A*02:01 [4] = assay: IEDB peptide-MHC binding, purified MHC/direct/fluorescence; filed as Kd, often an IC50 or EC50 that approximates it; ≥ and ≤ were set here for values at or beyond the usual limits of such assays
HLA-A*69:01 = assay: as above
HLA-A*02:01 [5] = assay: IEDB peptide-MHC binding, purified MHC/competitive/fluorescence; ≥ and ≤ were set here for values at or beyond the usual limits of such assays
HLA-B*27:05 = assay: IEDB peptide-MHC binding, purified MHC/direct/fluorescence; filed as Kd, often an IC50 or EC50 that approximates it; ≥ and ≤ were set here for values at or beyond the usual limits of such assays; settings: source organism: Mycobacterium tuberculosis
HLA-B*40:01 = assay: as above; settings: source organism: Rickettsia prowazekii
HLA-B*58:01 = assay: as above; settings: source organism: Rickettsia prowazekii
HLA-A*03:01 = assay: as above; settings: source organism: SARS-CoV1
HLA-A*31:01 = assay: as above; settings: source organism: SARS-CoV1
HLA-A*68:01 = assay: IEDB peptide-MHC binding, purified MHC/competitive/radioactivity; filed as Kd, often an IC50 or EC50 that approximates it; ≥ and ≤ were set here for values at or beyond the usual limits of such assays; settings: source organism: SARS coronavirus Tor2
HLA-A*33:01 = assay: as above; settings: source organism: SARS coronavirus Tor2
[6] = source organism: Dengue virus 4 Philippines/H241/1956
[7] = source organism: Dengue virus 2 Jamaica/1409/1983
[8] = source organism: Dengue virus 1 Brazil/97-11/1997
[9] = source organism: Bacillus thuringiensis
[10] = source organism: Dengue virus 4 Dominica/814669/1981
[11] = source organism: Mycobacterium tuberculosis
[12] = source organism: Zaire ebolavirus
[13] = source organism: Oligoflexia bacterium
[14] = source organism: Cryptosporidium hominis
[15] = source organism: Orthohantavirus hantanense
[16] = source organism: Giardia lamblia ATCC 50803
[17] = source organism: Sudan ebolavirus
[18] = source organism: Vaccinia virus
[19] = source organism: Cryptosporidium parvum
[20] = source organism: Dengue virus 3 Martinique/1243/1999
[21] = source organism: Dengue virus 1 Singapore/S275/1990
[22] = source organism: Dengue virus 2 Thailand/NGS-C/1944

## ALTAGAGAY
HLA-B*15:01; source organism: Mycobacterium tuberculosis str. Haarlem
  Kd: 450 nM

## ASLIPDATY
HLA-A*01:01 [1]; source organism: Mammarenavirus lassaense
  Kd: 17100 nM

## DIRTLLPILL
HLA-A*02:01 [2]; source organism: Variola virus
  Kd: 737 nM

## DPNPQEVVL
HLA-B*07:02; source organism: Human immunodeficiency virus 1
  Kd: ≥ 30700 nM

## DVRNDMISY
HLA-A*26:01; [6]
  Kd: 431 nM

## EAEPPFGDSY
HLA-A*01:01 [3]; [7]
  Kd: 1770 nM
HLA-A*26:01; [7]
  Kd: 1300 nM

## EEEEAGVLW
HLA-B*44:02; [7]
  Kd: 84.7 nM
HLA-B*44:03; [7]
  Kd: 162 nM

## EEFWKLVDR
HLA-B*44:03; source organism: Dengue virus 3 Sri Lanka/1266/2000
  Kd: 3110 nM

## EEYVDYMPVM
HLA-B*44:03; [6]
  Kd: 869 nM

## EFFLMVLLI
HLA-A*24:02; [8]
  Kd: ≥ 40100 nM

## EIVNLLDNKV
HLA-A*02:01 [2]; source organism: Vaccinia virus Copenhagen
  Kd: ≥ 20000 nM

## ELGGGFGTL
HLA-A*02:01 [4]; [9]
  Kd: 7000 nM
HLA-A*69:01; [9]
  Kd: 680 nM

## ELIDGISLG
HLA-A*26:01; [10]
  Kd: 472 nM

## ELITEQMAPH
HLA-A*26:01; [6]
  Kd: 6060 nM

## EMFGGTPAV
HLA-A*02:01 [4]; [11]
  Kd: 2.1 nM

## ENSSAMVQV
HLA-A*02:01 [5]; [12]
  IC50: ≥ 277000 nM

## ETEQPTLDY
HLA-A*69:01; source organism: Homo sapiens
  Kd: 2890 nM
HLA-A*01:01 [1]; source organism: Homo sapiens
  Kd: 16.3 nM

## ETLETLLLLT
HLA-A*26:01; [7]
  Kd: 17400 nM

## ETLGEKWKNR
HLA-A*26:01; source organism: Dengue virus 2 Peru/IQT2913/1996
  Kd: 14600 nM

## ETLGEKWKSR
HLA-A*26:01; [7]
  Kd: 14300 nM

## EYSGGLHGV
HLA-A*02:01 [4]; [13]
  Kd: 18000 nM
HLA-A*69:01; [13]
  Kd: 460 nM

## FQWSDDPFI
HLA-A*02:01 [4]; [14]
  Kd: 7.3 nM
HLA-A*69:01; [14]
  Kd: ≥ 20000 nM

## FRWDYIPPT
HLA-B*27:05
  Kd: 332 nM

## GAAGARGAL
HLA-B*07:02; source organism: Hepacivirus hominis
  Kd: 12.8 nM

## GELCEDTMTY
HLA-B*44:03; [8]
  Kd: 25 nM

## GLQADAPHL
HLA-A*02:01 [4]; [15]
  Kd: 104 nM
HLA-A*69:01; [15]
  Kd: ≥ 20000 nM

## GLVRALTAF
HLA-B*15:01; source organism: Mycobacterium tuberculosis variant bovis BCG str. Pasteur 1173P2
  Kd: 255 nM

## GMSLLEYGV
HLA-A*02:01 [4]; [16]
  Kd: 3.5 nM
HLA-A*69:01; [16]
  Kd: ≥ 20000 nM

## GQFGSGWTW
HLA-B*40:01
  Kd: 2870 nM
HLA-B*58:01
  Kd: 168 nM
HLA-B*15:01; source organism: Rickettsia prowazekii
  Kd: 138 nM

## GTIGAVSLDF
HLA-A*26:01; [7]
  Kd: 454 nM

## GVATDVPSA
HLA-A*02:01 [5]; [12]
  IC50: 1460 nM

## IESALNDTW
HLA-B*44:02; [7]
  Kd: 127 nM
HLA-B*44:03; [7]
  Kd: 67.9 nM

## IESSKNQTW
HLA-B*44:02; [6]
  Kd: 135 nM
HLA-B*44:03; [6]
  Kd: 158 nM

## IKKPDGSEC
HLA-A*02:01 [5]; [17]
  IC50: ≥ 318000 nM

## KLIIHNPEL
HLA-A*02:01 [2]; [18]
  Kd: 2 nM

## KLIQIEKVL
HLA-A*02:01 [4]; [19]
  Kd: 3250 nM
HLA-A*69:01; [19]
  Kd: ≥ 20000 nM

## KLSSLGLNAV
HLA-A*02:01 [5]; source organism: Hepatitis C virus subtype 1b
  IC50: 25 nM

## KMSEYKGPV
HLA-A*03:01
  Kd: 10600 nM
HLA-A*31:01
  Kd: 2090 nM
HLA-B*15:01; source organism: SARS-CoV1
  Kd: 6670 nM
HLA-A*02:01 [4]; source organism: SARS-CoV1
  Kd: 1520 nM

## KVIQPRVEK
HLA-A*68:01
  Kd: 890 nM
HLA-A*33:01
  Kd: 7340 nM
HLA-A*31:01
  Kd: 427 nM

## LDPIPYDPKF
HLA-A*24:02; [7]
  Kd: 2420 nM

## LILAKPKET
HLA-A*02:01 [5]; [17]
  IC50: 10800 nM

## LLPGVAHSI
HLA-A*02:01 [4]; source organism: Amur virus
  Kd: 4.2 nM
HLA-A*69:01; source organism: Amur virus
  Kd: ≥ 20000 nM

## LLWAFAHRQ
HLA-A*02:01 [4]; [11]
  Kd: 551 nM
HLA-A*69:01; [11]
  Kd: ≥ 20000 nM

## LLWFNYLFG
HLA-A*02:01 [5]; source organism: Variola virus
  IC50: ≥ 327000 nM

## LMQDCAIKA
HLA-A*02:01 [4]; [16]
  Kd: 82.1 nM
HLA-A*69:01; [16]
  Kd: ≥ 20000 nM

## LRFANPLSN
HLA-A*02:01 [5]; [18]
  IC50: ≥ 164000 nM

## LTASLVMLL
HLA-A*01:01 [3]; [10]
  Kd: 1900 nM

## LTDGPERVIL
HLA-A*01:01 [3]; [20]
  Kd: 11800 nM

## LVPKNSPGM
HLA-A*02:01 [5]; [17]
  IC50: 17700 nM

## LYAVATTFV
HLA-A*24:02; [7]
  Kd: 66.4 nM

## MDYHKILTA
HLA-A*02:01 [5]; [12]
  IC50: ≥ 114000 nM

## MENLLWKQI
HLA-B*44:02; [20]
  Kd: 6.79 nM
HLA-B*44:03; [20]
  Kd: 93.4 nM

## MTSRMLLNRF
HLA-A*01:01 [3]; [8]
  Kd: 12300 nM
HLA-A*26:01; [8]
  Kd: 2180 nM

## NEGIMAVGI
HLA-B*44:02; [21]
  Kd: 48 nM
HLA-B*44:03; [21]
  Kd: 160 nM

## NEMVLLQMEN
HLA-B*44:02; [22]
  Kd: 512 nM
HLA-B*44:03; [22]
  Kd: 1440 nM

## NLEHGLFPQ
HLA-A*02:01 [5]; [12]
  IC50: ≥ 304000 nM

## PECPSASRAW
HLA-B*44:02; [20]
  Kd: 1120 nM
